US20190071489A1
Where “and” joins values, the source holds several entries; their conditions need not be identical. Equal values may be shown once.

B1: EVB165 (antibody, V domains shown)
VH: DVQLVESGGGVVQPGGSLKLACVVSGFRFSDYWMSWVRQAPGKGLEWVANIKQDGSGKYYVDSVKGRFTVSRDNAKNSLYLHMTSLGAEDTAVYFCARAAPTGSYTNILVDNVHFDYWGQGILVAVSS
VL: GIQLTQSPGSLSASVGDSVTITCRPNQNIATYINWYQQTPGKAPKLLIYAASILQSGVPSRFSGAGSGTHFTLIISTLQPEDSATYYCQQSYSTPWTFGQGTKVEIK
B2: EVB167 (antibody, V domains shown)
VH: AVQLVQSGAEVKKPGTTVKISCKVSGYTFIQEYIHWVQQAPGKGLVWMGLGDPENNETLYSEDFQGRVTMTADTSSDTAYLELRSLTFADTAVYFCTSRKSWWGQGTLVTVAS
VL: ELVLTQSPGTLSLSPGESATLSCRASQSLSSDSVSWFQQKPGQAPRLVIHGTSKRATGIPDRFSGGGSGTDFTLTIARLEPEDFAVYYCQRSGYGMSVTWTFGQGTTVEIK
B3: EVB100 (antibody, V domains shown)
VH: QVQLQESGPGLVKPSDTLSLTCTVSGGSLSSFYWSWIRQPPGKGLEWIGYIYYSGSPNYSPSLESRVTMSVDTTRNQISLKLDSVTAADTAVYYCVRASRSYYWGSYRPTAFDSWGQGTLVTVSS
VL: SYELTQPLSVSVSPGQTAIFTCSGDNLGDKYVCWFQQRPGQSPMLLIYQDNKRPSGIPERFSGSNSGNTATLTISGTQSTDEADYYCQTWDSTVVFGGGTKLTVL
B4: EVB114 (antibody, V domains shown)
VH: EVQLVESGGGLIQPGGSLRLSCAASGFALRMYDMHWVRQTIDKRLEWVSAVGPSGDTYYADSVKGRFAVSRENAKNSLSLQMNSLTAGDTAIYYCVRSDRGVAGLFDSWGQGILVTVSS
VL: DIQMTQSPSSLSASVGDRITITCRASQAFDNYVAWYQQRPGKVPKLLISAASALHAGVPSRFSGSGSGTHFTLTISSLQPEDVATYYCQNYNSAPLTFGGGTKVEIK

Columns and labels:
[1] = molecular target: EBOV GP (Ebola virus , Mayinga) (UniProt Q05320); assay: cell-based or functional assay
Chain of UniProt Q05320 (Q05320 33-501, chain 1 of 2): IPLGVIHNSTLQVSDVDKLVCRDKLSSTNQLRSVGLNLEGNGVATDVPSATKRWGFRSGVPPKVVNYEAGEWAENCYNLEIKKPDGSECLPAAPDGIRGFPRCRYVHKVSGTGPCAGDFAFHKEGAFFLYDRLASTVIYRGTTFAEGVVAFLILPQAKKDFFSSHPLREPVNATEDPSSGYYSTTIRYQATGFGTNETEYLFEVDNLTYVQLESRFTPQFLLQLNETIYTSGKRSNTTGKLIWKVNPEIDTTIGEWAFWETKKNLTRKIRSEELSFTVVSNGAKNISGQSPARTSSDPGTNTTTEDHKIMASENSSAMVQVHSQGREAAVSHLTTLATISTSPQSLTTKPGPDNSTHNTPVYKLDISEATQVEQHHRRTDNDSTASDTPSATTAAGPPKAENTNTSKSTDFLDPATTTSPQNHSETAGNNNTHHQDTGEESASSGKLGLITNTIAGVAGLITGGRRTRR
Chain of UniProt Q05320 (Q05320 502-650, chain 2 of 2): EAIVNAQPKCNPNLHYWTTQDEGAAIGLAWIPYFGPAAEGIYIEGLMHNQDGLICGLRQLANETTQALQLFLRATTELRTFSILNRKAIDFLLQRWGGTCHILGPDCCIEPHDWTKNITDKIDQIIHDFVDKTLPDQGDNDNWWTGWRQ

[2] = molecular target: EBOV GP (Ebola virus , Mayinga) (UniProt Q05320)
[3] = molecular target: EBOV GP (Ebola virus , Mayinga) (UniProt Q05320); remark: listed apart in the source

Molecule	neutralization at 10 µg/mL [1]	maximum inhibition of input virus [1]	EC50 [2]	Abs 450 (1/27) [3]	Abs 450 (Und.) [3]	maximal binding, higher than the other antibodies [2]
13C6 (antibody)	< 20%	–	–	–	–	–
KZ52 (antibody)	–	80% and 90%	–	–	–	–
B1	–	100%	> 1 µg/mL	1.72 Abs 450	3.17 Abs 450	–
B2	–	–	–	2.97 Abs 450	3.37 Abs 450	–
B3	–	100%	0.26 µg/mL	–	–	–
B4	–	100%	0.07 µg/mL	–	–	100%
